Source: US20240024501A1 (BONUM THERAPEUTICS, published 2024)
Where a chain is given by its changes, count along the chain named.

B1: AF4403 (other)
heavy 1: QVQLVESGGGVVQPGRSLRLDCKASGITFSNSGMHWVRQAPGKGLEWVAVIWYDGSKRYYADSVKGRFTISRDNSKNTLFLQMNSLRAEDTAVYYCATNDDYWGQGTLVTVSSAKTTAPSVYPLAPVCGDTTGSSVTLGCLVKGYFPEPVTLTWNSGSLSSGVHTFPAVLQSDLYTLSSSVTVTSSTWPSQSITCNVAHPASSTKVDKKIEPRGPTIKPCPPCKCPAPNAAGGPSVFIFPPKIKDVLMISLSPIVTCVVVDVSEDDPDVQISWFVNNVEVHTAQTQTHREDYNSTLRVVSALPIQHQDWMSGKEFKCKVNNKDLGAPIERTISKPKGSVRAPQVYVLPPPEKEMTKKQVSLTCLVKDFMPEDIYVEWTNNGKTELNYKNTEPVLKSDGSYFMYSKLTVEKKNWVERNSYSCSVVHEGLHNHHTTKSFSRTPGGGGGSGGGGSGGGGSGGGGSQVQLVQSGAEVKKPGASVKVSCKASGDTFTRYYVHWVRQAPGQGLEWMGIINPSGGYASYAQKFQGRVTMTRDTSTSTVYMELSSLRSEDTAVYYCAAGLFIWGQGTLVTVSSASGGGGSGGGGSGGGGSHASDIQMTQSPSSLSASVGDRVTITCRASQSIGRYLAWYQQKPGKAPKLLIYSASNLETGVPSRFSGSGSGTDFTLTISSLQPEDFATYYCQQYNSFPVTFGPGTKVDIKGGGSGGGSHHHHHH
heavy 2: QVQLVESGGGVVQPGRSLRLDCKASGITFSNSGMHWVRQAPGKGLEWVAVIWYDGSKRYYADSVKGRFTISRDNSKNTLFLQMNSLRAEDTAVYYCATNDDYWGQGTLVTVSSAKTTAPSVYPLAPVCGDTTGSSVTLGCLVKGYFPEPVTLTWNSGSLSSGVHTFPAVLQSDLYTLSSSVTVTSSTWPSQSITCNVAHPASSTKVDKKIEPRGPTIKPCPPCKCPAPNAAGGPSVFIFPPKIKDVLMISLSPIVTCVVVDVSEDDPDVQISWFVNNVEVHTAQTQTHREDYNSTLRVVSALPIQHQDWMSGKEFKCKVNNKDLGAPIERTISKPKGSVRAPQVYVLPPPEEEMTKKQVTLTCMVTDFMPEDIYVEWTNNGKTELNYKNTEPVLDSDGSYFMYSDLRVEKKNWVERNSYSCSVVHEGLHNHHTTESFSRTPGGGGGSGGGGSGGGGSAPTSSSTKKTQLQLEHLLLDLQMILNGINNYKNPKLTDMLTFEFYMPKKATELKHLQCLERELKPLEEVLNLAQSKNFHLRPRDLISNINVIVLELKGSETTFMCEYADETATIVEFLNRWITFCQSIISTLT
light: EIVLTQSPATLSLSPGERATLSCRASQSVSSYLAWYQQKPGQAPRLLIYDASNRATGIPARFSGSGSGTDFTLTISSLEPEDFAVYYCQQSSNWPRTFGQGTKVEIKRADAAPTVSIFPPSSEQLTSGGASVVCFLNNFYPKDINVKWKIDGSERQNGVLNSWTDQDSKDSTYSMSSTLTLTKDEYERHNSYTCEATHKTSTSPIVKSFNRNEC
B2: AF4404 (other)
heavy 1: QVQLVESGGGVVQPGRSLRLDCKASGITFSNSGMHWVRQAPGKGLEWVAVIWYDGSKRYYADSVKGRFTISRDNSKNTLFLQMNSLRAEDTAVYYCATNDDYWGQGTLVTVSSAKTTAPSVYPLAPVCGDTTGSSVTLGCLVKGYFPEPVTLTWNSGSLSSGVHTFPAVLQSDLYTLSSSVTVTSSTWPSQSITCNVAHPASSTKVDKKIEPRGPTIKPCPPCKCPAPNAAGGPSVFIFPPKIKDVLMISLSPIVTCVVVDVSEDDPDVQISWFVNNVEVHTAQTQTHREDYNSTLRVVSALPIQHQDWMSGKEFKCKVNNKDLGAPIERTISKPKGSVRAPQVYVLPPPEKEMTKKQVSLTCLVKDFMPEDIYVEWTNNGKTELNYKNTEPVLKSDGSYFMYSKLTVEKKNWVERNSYSCSVVHEGLHNHHTTKSFSRTPGGGGGSGGGGSGGGGSGGGGSQVQLVQSGAEVKKPGASVKVSCKASGYTFTDYYMHWVRQAPGQGLEWMGIINPRAGYTSYALKFQGRVTMTRDTSTSTVYMELSSLRSEDTAVYYCTSGWDVWGQGTLVTVSSASGGGGSGGGGSGGGGSHASDIQMTQSPSSLSASVGDRVTITCRASQSISTWLAWYQQKPGKAPKLLIYAASSLDSGVPSRFSGSGSGTDFTLTISSLQPEDFATYYCQQSYSFPVTFGQGTKVEIKGGGSGGGSHHHHHH
heavy 2: B1 heavy 2
light: B1 light
B3: AF4379 (other)
heavy: APTSSSTKKTQLQLEHLLLDLQMILNGINNYKNPKLTDMLTFEFYMPKKATELKHLQCLERELKPLEEVLNLAQSKNFHLRPRDLISNINVIVLELKGSETTFMCEYADETATIVEFLNRWITFCQSIISTLTGGGGSGGGGSGGGGSGGGGSQVQLVQSGAEVKKPGASVKVSCKASGDTFTRYYVHWVRQAPGQGLEWMGIINPSGGYASYAQKFQGRVTMTRDTSTSTVYMELSSLRSEDTAVYYCAAGLFIWGQGTLVTVSSAKTTAPSVYPLAPVCGDTTGSSVTLGCLVKGYFPEPVTLTWNSGSLSSGVHTFPAVLQSDLYTLSSSVTVTSSTWPSQSITCNVAHPASSTKVDKKIEPRGPTIKPCPPCKCPAPNAAGGPSVFIFPPKIKDVLMISLSPIVTCVVVDVSEDDPDVQISWFVNNVEVHTAQTQTHREDYNSTLRVVSALPIQHQDWMSGKEFKCKVNNKDLGAPIERTISKPKGSVRAPQVYVLPPPEEEMTKKQVTLTCMVTDFMPEDIYVEWTNNGKTELNYKNTEPVLDSDGSYFMYSKLRVEKKNWVERNSYSCSVVHEGLHNHHTTKSFSRTPGK
light: DIQMTQSPSSLSASVGDRVTITCRASQSIGRYLAWYQQKPGKAPKLLIYSASNLETGVPSRFSGSGSGTDFTLTISSLQPEDFATYYCQQYNSFPVTFGPGTKVDIKRADAAPTVSIFPPSSEQLTSGGASVVCFLNNFYPKDINVKWKIDGSERQNGVLNSWTDQDSKDSTYSMSSTLTLTKDEYERHNSYTCEATHKTSTSPIVKSFNRNEC
B4: AF4389 (other)
heavy 1: B3 heavy with D180H, V187M, S212T, A251S, K558D, K588E
heavy 2: QVQLVQSGAEVKKPGASVKVSCKASGHTFTRYYMHWVRQAPGQGLEWMGIINPSGGYATYAQKFQGRVTMTRDTSTSTVYMELSSLRSEDTAVYYCASGLFIWGQGTLVTVSSAKTTAPSVYPLAPVCGDTTGSSVTLGCLVKGYFPEPVTLTWNSGSLSSGVHTFPAVLQSDLYTLSSSVTVTSSTWPSQSITCNVAHPASSTKVDKKIEPRGPTIKPCPPCKCPAPNAAGGPSVFIFPPKIKDVLMISLSPIVTCVVVDVSEDDPDVQISWFVNNVEVHTAQTQTHREDYNSTLRVVSALPIQHQDWMSGKEFKCKVNNKDLGAPIERTISKPKGSVRAPQVYVLPPPEKEMTKKQVSLTCLVKDFMPEDIYVEWTNNGKTELNYKNTEPVLKSDGSYFMYSKLTVEKKNWVERNSYSCSVVHEGLHNHHTTKSFSRTPGGGGSGGGSHHHHHH
light: DIQMTQSPSSLSASVGDRVTITCRASQSINSWLAWYQQKPGKAPKLLIYATSTLESGVPSRFSGSGSGTDFTLTISSLQPEDFATYYCQQYYRFPVTFGQGTKVEIKRADAAPTVSIFPPSSEQLTSGGASVVCFLNNFYPKDINVKWKIDGSERQNGVLNSWTDQDSKDSTYSMSSTLTLTKDEYERHNSYTCEATHKTSTSPIVKSFNRNEC
B5: AF4386 (other)
heavy 1: B3 heavy with K558D, K588E
heavy 2: B4 heavy 2 with H27D, M34V, T59S, S98A
light: B3 light

Each binder was assayed against PD-1-Fc (UniProt Q15116 25-167, limits assumed) (assay: cell-based or functional assay).
PD-1-Fc, sequence (Q15116 25-167 limits assumed): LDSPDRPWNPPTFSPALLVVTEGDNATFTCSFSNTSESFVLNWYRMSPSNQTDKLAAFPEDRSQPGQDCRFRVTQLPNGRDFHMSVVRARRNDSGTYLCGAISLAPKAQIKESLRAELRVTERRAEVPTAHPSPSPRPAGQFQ

EC50 of IL-2 activity, HEK-Blue IL-2 reporter cells, PD-1 coated wells	EC50 of IL-2 activity, HEK-Blue IL-2 reporter cells, control wells (no PD-1)	EC50 of IL-2 activity, HEK-Blue IL-2 reporter cells, IgG1 coated wells (no PD-1)	Binder
0.031 nM	0.062 nM	–	B1
0.026 nM	0.064 nM	–	B2
0.031 nM	–	0.062 nM	B3
0.118 nM	–	1.67 nM	B4
0.05 nM	–	1.79 nM	B5
